Measurements reported in paper PMC5861439.

Biological target: Saccharomyces cerevisiae Asf1 (2–169) (Saccharomyces cerevisiae) (UniProt P32447)
Assay: MST

Chain of Saccharomyces cerevisiae Asf1 (2–169) (Saccharomyces cerevisiae) (P32447 2-169): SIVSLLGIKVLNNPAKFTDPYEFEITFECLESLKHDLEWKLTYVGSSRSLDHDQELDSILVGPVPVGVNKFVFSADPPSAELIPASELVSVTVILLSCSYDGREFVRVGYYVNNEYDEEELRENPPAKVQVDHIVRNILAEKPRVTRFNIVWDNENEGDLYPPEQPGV
Chain of Rtt109−Vps75_(2) complex (Q07794 whole entry): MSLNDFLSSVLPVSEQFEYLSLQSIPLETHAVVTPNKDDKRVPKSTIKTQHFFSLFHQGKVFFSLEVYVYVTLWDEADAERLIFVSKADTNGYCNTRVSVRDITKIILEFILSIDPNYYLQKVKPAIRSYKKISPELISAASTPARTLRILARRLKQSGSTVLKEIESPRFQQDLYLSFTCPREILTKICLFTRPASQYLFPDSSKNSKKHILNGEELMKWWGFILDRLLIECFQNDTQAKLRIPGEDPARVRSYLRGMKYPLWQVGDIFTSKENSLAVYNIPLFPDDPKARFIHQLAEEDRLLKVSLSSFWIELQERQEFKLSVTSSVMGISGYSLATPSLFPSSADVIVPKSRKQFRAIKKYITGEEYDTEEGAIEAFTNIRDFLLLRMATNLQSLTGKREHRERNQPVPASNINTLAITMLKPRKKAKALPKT
Chain of Rtt109−Vps75_(2) complex (P53853 whole entry): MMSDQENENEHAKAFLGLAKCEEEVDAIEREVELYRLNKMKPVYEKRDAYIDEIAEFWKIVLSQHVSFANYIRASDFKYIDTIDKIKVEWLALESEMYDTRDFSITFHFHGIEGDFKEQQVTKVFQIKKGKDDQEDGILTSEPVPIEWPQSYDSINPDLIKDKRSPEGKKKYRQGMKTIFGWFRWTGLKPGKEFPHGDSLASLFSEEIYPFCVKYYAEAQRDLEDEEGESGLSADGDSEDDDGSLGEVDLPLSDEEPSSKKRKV
Chain of full-length Saccharomyces cerevisiae Rtt109 (Q07794 whole entry): as the sequence (Q07794 whole entry) above

Substance: full-length Saccharomyces cerevisiae Rtt109 (from UniProt Q07794 1-436) (enzyme)
- Kd: 7.63 µM

Substance: Rtt109−Vps75_(2) complex (from UniProt Q07794;P53853)
- Kd: 42.7 µM
